From the supplement of paper PMC10567573 come the findings set out here.

B1: HDAC6 (parent)
chain: DLMETTQYMNEGELRVLADTYDSV
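Also: lentivirally expressed fusions sorted by FACS into six bins by GFP to DsRed ratio, PSI derived from sequencing read proportions per bin multiplied by bin number.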

This data set covers variants of B1. Description: protein stability index of a GFP-peptide fusion (GPS, HEK-293T) (PSI 1-6); higher = more stable. Particulars: c terminus: a fixed tail appended.
DLMETTQYMNRGELRVLADTYDSV [E11R]: the protein stability index was found to be 3.19.

As for DLMETTQYMNGGELRVLADTYDSV [E11G], the protein stability index stood at 3.58.

Turning to DLMETTQYMNAGELRVLADTYDSV [E11A], the protein stability index came out at 2.15.

For the variant DLMETTQYMNDGELRVLADTYDSV [E11D], the protein stability index is 1.69.

Turning to DLMETTQYMNCGELRVLADTYDSV [E11C], the protein stability index is 2.47.

As to DLMETTQYMNYGELRVLADTYDSV [E11Y], the protein stability index was determined as 2.43.

For DLMETTQYMNMGELRVLADTYDSV [E11M], the protein stability index was 3.15.

As for DLMETTQYMNSGELRVLADTYDSV [E11S], the protein stability index was found to be 2.95.

Consider DLMETTQYMNLGELRVLADTYDSV [E11L], for which the protein stability index was 2.6.

For DLMETTQYMNFGELRVLADTYDSV [E11F], the protein stability index is 2.

Consider DLMETTQYMNIGELRVLADTYDSV [E11I], for which the protein stability index came out at 1.86.

Regarding DLMETTQYMNPGELRVLADTYDSV [E11P], the protein stability index stood at 3.65.

As to DLMETTQYMNVGELRVLADTYDSV [E11V], the protein stability index was found to be 2.45.

For the variant DLMETTQYMNHGELRVLADTYDSV [E11H], the protein stability index amounted to 2.78.

Regarding DLMETTQYMNQGELRVLADTYDSV [E11Q], the protein stability index is 2.6.

For DLMETTQYMNTGELRVLADTYDSV [E11T], the protein stability index was found to be 2.9.

Take DLMETTQYMNWGELRVLADTYDSV [E11W]: the protein stability index came to 1.89.

DLMETTQYMNNGELRVLADTYDSV [E11N]: the protein stability index is 3.13.

On to DLMETTQYMNKGELRVLADTYDSV [E11K], for which the protein stability index is 2.89.

Turning to DLMETTQYMREGELRVLADTYDSV [N10R], the protein stability index amounted to 1.75.

Consider DLMETTQYMVEGELRVLADTYDSV [N10V], for which the protein stability index amounted to 1.8.

As for DLMETTQYMYEGELRVLADTYDSV [N10Y], the protein stability index is 3.32.

Turning to DLMETTQYMGEGELRVLADTYDSV [N10G], the protein stability index was 3.14.

Regarding DLMETTQYMHEGELRVLADTYDSV [N10H], the protein stability index was 2.57.

Turning to DLMETTQYMPEGELRVLADTYDSV [N10P], the protein stability index is 4.49.

Take DLMETTQYMQEGELRVLADTYDSV [N10Q]: the protein stability index turned out to be 2.07.

Consider DLMETTQYMMEGELRVLADTYDSV [N10M], for which the protein stability index is 4.08.

As for DLMETTQYMTEGELRVLADTYDSV [N10T], the protein stability index is 2.21.

On to DLMETTQYMSEGELRVLADTYDSV [N10S], for which the protein stability index was 1.74.

For the variant DLMETTQYMNEGEQRVLADTYDSV [L14Q], the protein stability index worked out at 2.28.

Turning to DLMETTQYMNEGEARVLADTYDSV [L14A], the protein stability index was found to be 2.11.

As for DLMETTQYMNEGESRVLADTYDSV [L14S], the protein stability index amounted to 2.21.

As for DLMETTQYMNEGEPRVLADTYDSV [L14P], the protein stability index worked out at 4.29.

In the case of DLMETTQYMNEGEYRVLADTYDSV [L14Y], the protein stability index was found to be 1.87.

Consider DLMETTQYMNEGEHRVLADTYDSV [L14H], for which the protein stability index was determined as 2.29.

As for DLMETTQYMNEGEIRVLADTYDSV [L14I], the protein stability index was found to be 2.26.

With DLMETTQYMNEGEDRVLADTYDSV [L14D], the protein stability index is 2.32.

As to DLMETTQYMNEGEGRVLADTYDSV [L14G], the protein stability index came out at 2.92.

On to DLMETTQYMNEGEVRVLADTYDSV [L14V], for which the protein stability index amounted to 2.83.

For DLMETTQYMNEGEERVLADTYDSV [L14E], the protein stability index amounted to 2.07.

Regarding DLMETTQYMNEGEFRVLADTYDSV [L14F], the protein stability index came to 1.74.

DLMETTQYMNEGEMRVLADTYDSV [L14M]: the protein stability index stood at 1.62.

For the variant DLMETTQYMNEGETRVLADTYDSV [L14T], the protein stability index stood at 3.56.

Regarding DLMETTQYMNEGECRVLADTYDSV [L14C], the protein stability index is 1.97.

DLMETTQYMNEGEWRVLADTYDSV [L14W]: the protein stability index amounted to 2.48.

Turning to DLMETTQYMNEGEKRVLADTYDSV [L14K], the protein stability index was 2.96.

With DLMETTQYMNEGENRVLADTYDSV [L14N], the protein stability index was determined as 3.03.

As for DLMETTQYMNEGDLRVLADTYDSV [E13D], the protein stability index was 3.9.

In the case of DLMETTQYMNEGFLRVLADTYDSV [E13F], the protein stability index came to 2.66.

For DLMETTQYMNEGRLRVLADTYDSV [E13R], the protein stability index is 3.63.

On to DLMETTQYMNEGPLRVLADTYDSV [E13P], for which the protein stability index amounted to 3.74.

With DLMETTQYMNEGGLRVLADTYDSV [E13G], the protein stability index turned out to be 4.06.

On to DLMETTQYMNEGILRVLADTYDSV [E13I], for which the protein stability index was 2.47.

Take DLMETTQYMNEGHLRVLADTYDSV [E13H]: the protein stability index came to 3.2.

On to DLMETTQYMNEGCLRVLADTYDSV [E13C], for which the protein stability index came out at 3.37.

On to DLMETTQYMNEGLLRVLADTYDSV [E13L], for which the protein stability index was 2.63.

Turning to DLMETTQYMNEGSLRVLADTYDSV [E13S], the protein stability index worked out at 3.56.

Take DLMETTQYMNEGWLRVLADTYDSV [E13W]: the protein stability index is 2.32.

DLMETTQYMNEGQLRVLADTYDSV [E13Q]: the protein stability index worked out at 4.13.

In the case of DLMETTQYMNEGALRVLADTYDSV [E13A], the protein stability index stood at 3.38.

DLMETTQYMNEGKLRVLADTYDSV [E13K]: the protein stability index came to 3.69.

Regarding DLMETTQYMNEGMLRVLADTYDSV [E13M], the protein stability index is 2.65.

DLMETTQYMNEGTLRVLADTYDSV [E13T]: the protein stability index was determined as 3.84.

On to DLMETTQYMNEGYLRVLADTYDSV [E13Y], for which the protein stability index was found to be 2.83.

Consider DLMETTQYMNEGVLRVLADTYDSV [E13V], for which the protein stability index worked out at 3.53.

Consider DLMETTQYMNEGNLRVLADTYDSV [E13N], for which the protein stability index turned out to be 3.96.

As to DLMETTQYMNEYELRVLADTYDSV [G12Y], the protein stability index came to 2.62.

For the variant DLMETTQYMNEMELRVLADTYDSV [G12M], the protein stability index was determined as 3.18.

Turning to DLMETTQYMNEWELRVLADTYDSV [G12W], the protein stability index worked out at 2.03.

For the variant DLMETTQYMNELELRVLADTYDSV [G12L], the protein stability index is 3.56.

For DLMETTQYMNEDELRVLADTYDSV [G12D], the protein stability index was found to be 4.79.

Consider DLMETTQYMNEEELRVLADTYDSV [G12E], for which the protein stability index is 4.82.

Regarding DLMETTQYMNEKELRVLADTYDSV [G12K], the protein stability index turned out to be 3.87.

As for DLMETTQYMNEFELRVLADTYDSV [G12F], the protein stability index turned out to be 2.85.

Take DLMETTQYMNERELRVLADTYDSV [G12R]: the protein stability index worked out at 3.71.

As to DLMETTQYMNEPELRVLADTYDSV [G12P], the protein stability index came out at 4.74.

On to DLMETTQYMNESELRVLADTYDSV [G12S], for which the protein stability index was found to be 3.58.

DLMETTQYMNENELRVLADTYDSV [G12N]: the protein stability index was 4.08.

Turning to DLMETTQYMNEAELRVLADTYDSV [G12A], the protein stability index is 2.33.

DLMETTQYMNECELRVLADTYDSV [G12C]: the protein stability index amounted to 3.07.

With DLMETTQYMNETELRVLADTYDSV [G12T], the protein stability index was 3.49.

With DLMETTQYMNEVELRVLADTYDSV [G12V], the protein stability index stood at 2.85.

As to DLMETTQYMNEIELRVLADTYDSV [G12I], the protein stability index is 2.9.

As for DLMETTQYMNEQELRVLADTYDSV [G12Q], the protein stability index was 4.16.

DLMETTQYMNEHELRVLADTYDSV [G12H]: the protein stability index is 3.46.

For the variant DLMETTQYMNEGELFVLADTYDSV [R15F], the protein stability index stood at 2.64.

Turning to DLMETTQYMNEGELKVLADTYDSV [R15K], the protein stability index came to 2.27.

For DLMETTQYMNEGELIVLADTYDSV [R15I], the protein stability index was found to be 2.2.

Consider DLMETTQYMNEGELAVLADTYDSV [R15A], for which the protein stability index turned out to be 1.77.

With DLMETTQYMNEGELHVLADTYDSV [R15H], the protein stability index worked out at 2.03.

As to DLMETTQYMNEGELCVLADTYDSV [R15C], the protein stability index was determined as 1.5.

For DLMETTQYMNEGELEVLADTYDSV [R15E], the protein stability index was 2.01.

In the case of DLMETTQYMNEGELGVLADTYDSV [R15G], the protein stability index came to 3.24.

DLMETTQYMNEGELDVLADTYDSV [R15D]: the protein stability index came out at 3.8.
